Laboratory results from publication PMC5703266.

Target: recombinant soluble tissue factor sTF (1–219) (UniProt P13726)
Sequence of UniProt P13726 (P13726 33-251): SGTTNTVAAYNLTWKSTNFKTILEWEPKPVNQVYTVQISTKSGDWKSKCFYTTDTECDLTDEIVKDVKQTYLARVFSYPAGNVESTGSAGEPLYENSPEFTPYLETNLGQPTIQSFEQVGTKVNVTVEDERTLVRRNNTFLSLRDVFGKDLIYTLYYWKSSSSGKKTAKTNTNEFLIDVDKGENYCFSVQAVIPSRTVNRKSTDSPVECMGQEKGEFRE

An activation of FX in solution, kcat/KM of 663 M⁻¹ s⁻¹ was found for “coagulation factor VIIa (FVIIa) (enzyme)” in this work.
